According to the supplement of paper PMC10724198:
± gives the standard deviation of the averaged measurements.

System: Saccharomyces cerevisiae
Assay: protein stability index of tFT-peptide fusion (C-terminal peptide) (PSI (0-1 scale)); higher = more stable (slower turnover)
Details: genetic background: wild type; temperature: 30 C
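Also: PSI is a weighted mean of sequencing reads over stability bins, variants kept only with over 10 reads, mCherry proximal and sfGFP distal, peptide attached via GGGS linker.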

| Sequence | protein stability index |
| --- | --- |
| PSPPVMSPEVAC | 0.627 ± 0.038 |
| LRFRCGNSRILS | 0.724 ± 0.044 |
| QDERPLAPRTRW | 0.7251 ± 0.0032 |
| LCPSLLFSSSDP | 0.699 ± 0.024 |
| YLGYADDLLIML | 0.707 ± 0.018 |
| PPPSHLHLPSPA | 0.53 ± 0.0095 |
| TLFSVGSDAMIV | 0.708 ± 0.041 |
| RFINRVVAGDRR | 0.681 ± 0.032 |
| FTFFFNCYSRSS | 0.655 ± 0.038 |
| RFGRGAVWGLGG | 0.6554 ± 0.0051 |
| VVVGVGGGVDMG | 0.685 ± 0.0082 |
| PPSPHHPPPPAL | 0.753 ± 0.0082 |
| ESDSEITYNKKQ | 0.729 ± 0.012 |
| LVKVGCVGLIKC | 0.545 ± 0.0066 |
| PCPPHILAPPPS | 0.713 ± 0.0091 |
| TNRRSRLQVSSN | 0.635 ± 0.08 |
| NCGGQGKEDGCK | 0.621 ± 0.013 |
| GLCPALQFPLHE | 0.68 ± 0.024 |
| SIRNNMKRVRKN | 0.631 ± 0.022 |
| HCVRVEWVEGRR | 0.668 ± 0.023 |
| VGGAGDWRWGVW | 0.805 ± 0.018 |
| GLVGGLCIGRLV | 0.672 ± 0.024 |
| CLAPSIPPPLSS | 0.702 ± 0.036 |
| PLRRPPRLPAPP | 0.7 ± 0.11 |
| LLNCVCSYFAWC | 0.637 ± 0.014 |

| Sequence | protein stability index |
| --- | --- |
| LQCCVAVTNYCV | 0.54 ± 0.016 |
| PIPPPPRACGPS | 0.7 ± 0.02 |
| TSPPPPSPPAHH | 0.625 ± 0.024 |
| KPKLSHPQPLRI | 0.699 ± 0.016 |
| GLPLPPPHPFSL | 0.7793 ± 0.0021 |
| HSIPPPRRHPTI | 0.742 ± 0.025 |
| SRFPPYALAHRP | 0.716 ± 0.2 |
| RCEGRRIEQSGK | 0.7037 ± 0.0049 |
| LHRGCSGNVPAR | 0.697 ± 0.037 |
| RPPAPQTATPHR | 0.726 ± 0.013 |
| SLPPPPCLPPLT | 0.675 ± 0.044 |
| SRAPHPPPPTLP | 0.711 ± 0.021 |
| TFSHRVICTGND | 0.733 ± 0.072 |
| TLRTPGFSSSLH | 0.721 ± 0.025 |
| GGGEGREEQEGR | 0.701 ± 0.019 |
| SLPLHFISGFYV | 0.6586 ± 0.0043 |
| TLQKKLTVNTKK | 0.738 ± 0.11 |
| VHGGKREGGGEG | 0.667 ± 0.039 |
| AQTVNNALAKPI | 0.6551 ± 0.0049 |
| WNRVPEWTREPL | 0.719 ± 0.022 |
| STTQFTLSATRI | 0.717 ± 0.093 |
| VFVDGVSYGGLC | 0.6811 ± 0.0058 |
| CVRPAPGSGGWQ | 0.6429 ± 0.0041 |
| GVREGCRGGVGA | 0.625 ± 0.052 |
| GGTRSDGYTQSR | 0.707 ± 0.017 |

| Sequence | protein stability index |
| --- | --- |
| GRYLIGKNKRVI | 0.687 ± 0.011 |
| RRPRPRSGWILL | 0.69 ± 0.047 |
| VLVVRERGAVDG | 0.697 ± 0.1 |
| APSTPTPPPPPP | 0.686 ± 0.042 |
| SGLFFRWCRLSW | 0.638 ± 0.031 |
| NKKKKKRNKQKN | 0.762 ± 0.011 |
| KEVDGRALVAEE | 0.655 ± 0.035 |
| SLDLSQPMPWYH | 0.711 ± 0.051 |
| PGLTAVVYRPAD | 0.724 ± 0.04 |
| PRRPPPLPPASF | 0.713 ± 0.047 |
| GGGVGRLAGLLG | 0.693 ± 0.046 |
| STVTSGCLKRIS | 0.723 ± 0.03 |
| VLGASFTATYFQ | 0.749 ± 0.077 |
| SAFFSAWVLVLD | 0.555 ± 0.024 |
| SPPQTETGAQRP | 0.666 ± 0.051 |
| VLVEWQTCRTRK | 0.656 ± 0.097 |
| FVSVSVRFHHSF | 0.575 ± 0.056 |
| PTLPPHSLRPPP | 0.692 ± 0.018 |
| SSLPPLRPFSPS | 0.726 ± 0.075 |
| LRREQIKEAKHR | 0.66 ± 0.017 |
| GVWGVGGGGGGR | 0.634 ± 0.088 |
| TPVAPGLSPPPL | 0.659 ± 0.066 |
| PTPPLPYRPRSP | 0.674 ± 0.014 |
| WARLVSSSLAAT | 0.61763 ± 0.00038 |
| PSPPLPHLLLLP | 0.6929 ± 0.0035 |

| Sequence | protein stability index |
| --- | --- |
| VIVKNINKNTQI | 0.717 ± 0.038 |
| PVFLSCCLCLLS | 0.78 ± 0.099 |
| VDASQTRYSRGS | 0.73964 ± 0.00026 |
| WAPPPPYSPFSL | 0.704 ± 0.0098 |
| PACVLVRRGWYL | 0.7277 ± 0.0029 |
| FPLIFALFPTFF | 0.603 ± 0.0067 |
| VGGLMVYTGDVA | 0.704 ± 0.015 |
| RFPFGPAPPPTP | 0.744 ± 0.042 |
| AFPPVIPALFSV | 0.697 ± 0.027 |
| SRTLPHRTAPHC | 0.758 ± 0.054 |
| IPFPSFPASLYR | 0.694 ± 0.021 |
| SHVLPHPGLSPP | 0.655 ± 0.061 |
| GGILNLCVTSLC | 0.617 ± 0.022 |
| ARRGIVQSRCNW | 0.684 ± 0.064 |
| WAGGGFVVGCVG | 0.629 ± 0.062 |
| GDGGCKVEWVRG | 0.724 ± 0.012 |
| GVRSGAGGQGVG | 0.708 ± 0.069 |
| PSLHPNHLAPPP | 0.622 ± 0.046 |
| MSHISPFPIFPC | 0.686 ± 0.0074 |
| GCLCWVLSGRGA | 0.68 ± 0.035 |
| GSVLFPLPFRPF | 0.64 ± 0.11 |
| PAAVAQAFPLIT | 0.649 ± 0.05 |
| PSPLAPPPRLPV | 0.733 ± 0.049 |
| ELGNREGVGYEV | 0.781 ± 0.17 |
| EDMRGATGRGAG | 0.669 ± 0.028 |

| Sequence | protein stability index |
| --- | --- |
| GGTSVLPPAVLF | 0.762 ± 0.004 |
| RGRAVGGARKFG | 0.739 ± 0.029 |
| SPPPPPVHPSSP | 0.722 ± 0.019 |
| LVVWFGYFGCLL | 0.56 ± 0.063 |
| AFLPLYFLEGVL | 0.702 ± 0.024 |
| LTYFSDRFVTRV | 0.6579 ± 0.0051 |
| PPRRSSLSPPLA | 0.6562 ± 0.0027 |
| SSPLWDGLPRLT | 0.736 ± 0.028 |
| IRAKKLNKSNNK | 0.7028 ± 0.0053 |
| VRLELIRSKLSR | 0.701 ± 0.022 |
| GTHGVGGNIDLT | 0.648 ± 0.013 |
| SRARADTSRRRA | 0.7061 ± 0.0059 |
| AGSCRCRTCCLV | 0.61354 ± 0.00038 |
| PLFYSLCFFCGL | 0.667 ± 0.044 |
| GCRRGGGMERAQ | 0.649 ± 0.05 |
| TPAMPRNPTDDS | 0.651 ± 0.0068 |
| QCGAWLKFTCHV | 0.636 ± 0.058 |
| GGGVVGPGGVLK | 0.705 ± 0.11 |
| TYLQYKQKMKKH | 0.686 ± 0.15 |
| QCAIRQCCLVSL | 0.574 ± 0.064 |
| RLLLSVLFGFFA | 0.5248 ± 0.0011 |
| RSRTSKGGNFII | 0.6766 ± 0.0053 |
| ESQSLLLFQEPS | 0.696 ± 0.057 |
| GKRKKERGGGER | 0.711 ± 0.093 |
| LFSLPPRASFSL | 0.773 ± 0.043 |

| Sequence | protein stability index |
| --- | --- |
| LPPPLPLPSRHY | 0.671 ± 0.06 |
| PPPAPPPPPPPP | 0.693 ± 0.068 |
| PAASRPPSPSLL | 0.665 ± 0.046 |
| SSYYTGVVTACL | 0.659 ± 0.052 |
| GSRSGPARTTGR | 0.668 ± 0.024 |
| SSCWRAWAVNGL | 0.677 ± 0.063 |
| NYIIRKTKERHK | 0.781 ± 0.11 |
| PPTLPPPRTLPL | 0.6984 ± 0.0052 |
| PHLPSSPSPYSP | 0.689 ± 0.0043 |
| VGGGACVWSRRR | 0.698 ± 0.05 |
| GEGFLRVGLADV | 0.761 ± 0.09 |
| DKDSTSRYSKPW | 0.725 ± 0.022 |
| PRIPHPPRPRPP | 0.669 ± 0.024 |
| GQRTKSHSRGGP | 0.648 ± 0.025 |
| PDPSVERFRGLC | 0.758 ± 0.095 |
| GLWIRAEISLVS | 0.575 ± 0.016 |
| VAGLQGGSGEGG | 0.576 ± 0.06 |
| LPPPPRPALSHR | 0.72 ± 0.089 |
| PPLPPPLRPPPS | 0.685 ± 0.026 |
| PSSPALIPCRLV | 0.61 ± 0.027 |
| DALVQVFANVGA | 0.6629 ± 0.0059 |
